US20240018255A1 (QURE BIOTECHNOLOGY SHANGHAI, published 2024)
Substitutions are numbered along the chain they refer to.

Columns and labels:
[1] = target: T1, SIRPα V6 fusion Fc (mouse IgG2a) (human; mouse); test: ELISA, plate coated with SIRPα V6-Fc (mouse IgG2a), anti-hFab secondary, OD450
T1 construct: No linker mentioned between SIRPα and Fc
T1 chain: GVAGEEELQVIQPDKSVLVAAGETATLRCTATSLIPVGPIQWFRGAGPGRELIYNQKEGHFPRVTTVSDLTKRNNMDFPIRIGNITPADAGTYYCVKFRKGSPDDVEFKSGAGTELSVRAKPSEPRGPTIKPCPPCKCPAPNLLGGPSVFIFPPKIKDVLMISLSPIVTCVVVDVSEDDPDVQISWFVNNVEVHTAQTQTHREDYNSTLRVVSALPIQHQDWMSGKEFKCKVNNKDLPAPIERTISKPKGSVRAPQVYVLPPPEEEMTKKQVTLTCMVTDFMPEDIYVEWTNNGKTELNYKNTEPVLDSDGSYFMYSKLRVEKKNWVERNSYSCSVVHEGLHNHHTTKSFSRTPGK
Procedure: (§1) The plate was coated with SIRPα V1/V2/V3/V4/V5/V6/V7/V8/V9/V10 at 1 μg/ml, 60 μl/well overnight at 4° C., and washed twice with PBST; blocked with 5% non-fat milk (Sangon) of 200 μl/well, incubated at room temperature for 1 h, and washed twice with PBST. Antibody was incubated at 10 μg/ml, diluted with 5 times for 10 gradients, 60 μl/well, incubated at room temperature for 1 h, and washed with PBST 5 times. Secondary antibody incubation: anti-hFab 1:10000, 60 μl/well, incubated at room temperature for 1 h, washed with PBST 5 times. Developing: TMB was equilibrated at room temperature for 1 h in advance, 100 μl/well, to develop for 10 min, 2M H₂SO₄ of 50 ul/well was used for termination, and reading was performed at 450 nm on microplate reader.

[2] = target: SIRPα V7 fusion Fc (mouse IgG2a) (human; mouse); test: ELISA, plate coated with SIRPα V7-Fc (mouse IgG2a), anti-hFab secondary, OD450
Procedure: as §1

[3] = target: T2, SIRPα V1 fusion Fc (mouse IgG2a) (human; mouse); test: ELISA, plate coated with SIRPα V1-Fc (mouse IgG2a), anti-hFab secondary, OD450
T2 construct: No linker mentioned between SIRPα and Fc
T2 chain: T1 chain with P79S
Procedure: as §1

[4] = target: SIRPα V8 fusion Fc (mouse IgG2a) (human; mouse); test: ELISA, plate coated with SIRPα V8-Fc (mouse IgG2a), anti-hFab secondary, OD450
Procedure: as §1

[5] = target: T3, SIRPα V9 fusion Fc (mouse IgG2a) (human; mouse); test: ELISA, plate coated with SIRPα V9-Fc (mouse IgG2a), anti-hFab secondary, OD450
T3 construct: No linker mentioned between SIRPα and Fc
T3 chain: T1 chain with P79S, G83S
Procedure: as §1

[6] = target: T4, human SIRPα naturally expressed on human renal clear cell adenocarcinoma 786-O cells (human, UniProt P78324 31-504); test: FACS on 786-O cells, PE-anti human FC secondary, MFI; unit from the axis Log[Abs,nM]
T4 construct: whole, on cells
Procedure: Blocking: the cells were resuspended with 2% FBS and were seeded into 96-well U bottom plate with 2E5/well, 200 μl/well, then subjected to ice bath for 1 h. Centrifugation was performed at 300 g for 3 min, and the supernatant was discarded. Antibody incubation: 10 μg/ml antibodies for incubation were diluted at 1:3, 100 μl/well, and subjected to ice bath for 1 h. Centrifugation was performed, and the supernatant was discarded. Pre-cooled PBS was added at 200 μl/well, centrifuged at 300 g for 5 min to discard supernatant, which was repeated twice. Secondary antibody: PE-anti human FC (1:200) 50 μl/well was subjected to ice bath for 0.5h. Centrifugation was performed and the supernatant was discarded. Pre-cooled PBS was added at 200 μl/well, centrifuged at 300 g for 5 min to discard supernatant, which was repeated 3 times. The mean fluorescence values were read on FACS.

[7] = target: T5, SIRPα V4 fusion Fc (mouse IgG2a) (human; mouse); test: ELISA, plate coated with SIRPα V4-Fc (mouse IgG2a), anti-hFab secondary, OD450
T5 construct: No linker mentioned between SIRPα and Fc
T5 chain: T1 chain with E7G, L18S, T24S, T26I, R28H, P79S
Procedure: as §1

[8] = target: SIRPα V10 fusion Fc (mouse IgG2a) (human; mouse); test: ELISA, plate coated with SIRPα V10-Fc (mouse IgG2a), anti-hFab secondary, OD450
Procedure: as §1

[9] = target: T6, SIRPα V2 fusion Fc (mouse IgG2a) (human; mouse); test: ELISA, plate coated with SIRPα V2-Fc (mouse IgG2a), anti-hFab secondary, OD450
T6 construct: No linker mentioned between SIRPα and Fc
Procedure: as §1

T4 sequence (P78324 31-504): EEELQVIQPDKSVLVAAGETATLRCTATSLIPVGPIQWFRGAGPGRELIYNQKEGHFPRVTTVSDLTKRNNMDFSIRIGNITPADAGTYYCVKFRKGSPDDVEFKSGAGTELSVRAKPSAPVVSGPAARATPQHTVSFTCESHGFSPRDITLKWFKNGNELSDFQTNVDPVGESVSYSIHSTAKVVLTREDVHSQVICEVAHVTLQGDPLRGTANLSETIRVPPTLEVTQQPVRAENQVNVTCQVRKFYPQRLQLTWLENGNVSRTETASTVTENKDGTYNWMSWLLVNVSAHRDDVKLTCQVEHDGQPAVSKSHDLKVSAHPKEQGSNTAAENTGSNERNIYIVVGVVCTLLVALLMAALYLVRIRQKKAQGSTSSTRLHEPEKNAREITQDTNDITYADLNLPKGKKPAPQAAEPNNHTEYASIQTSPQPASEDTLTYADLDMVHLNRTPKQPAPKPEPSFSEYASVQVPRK

B1: QP026249 (control antibody, variable regions of KWAR23, human IgG4/kappa) (antibody)
light: QIVLTQSPAIMSASPGEKVTLTCSASSSVSSSYLYWYQQKPGSSPKLWIYSTSNLASGVPARFSGSGSGTSYSLTISSMEAEDAASYFCHQWSSYPRTFGAGTKLELKRTVAAPSVFIFPPSDEQLKSGTASVVCLLNNFYPREAKVQWKVDNALQSGNSQESVTEQDSKDSTYSLSSTLTLSKADYEKHKVYACEVTHQGLSSPVTKSFNRGEC
heavy: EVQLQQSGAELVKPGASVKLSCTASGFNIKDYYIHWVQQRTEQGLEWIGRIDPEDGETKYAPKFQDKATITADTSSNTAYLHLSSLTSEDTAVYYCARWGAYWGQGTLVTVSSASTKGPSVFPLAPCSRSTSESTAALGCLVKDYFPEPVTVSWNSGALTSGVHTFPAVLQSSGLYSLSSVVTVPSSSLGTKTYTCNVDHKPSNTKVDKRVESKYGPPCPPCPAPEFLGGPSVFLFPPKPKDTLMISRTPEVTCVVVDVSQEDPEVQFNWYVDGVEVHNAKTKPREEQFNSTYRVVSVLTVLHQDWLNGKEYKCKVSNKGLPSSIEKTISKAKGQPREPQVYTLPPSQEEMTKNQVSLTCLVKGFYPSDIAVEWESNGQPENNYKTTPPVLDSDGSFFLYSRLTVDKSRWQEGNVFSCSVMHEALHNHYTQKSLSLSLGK
notes: also called KWAR23 (QP026249)
- EC50 (read off the curve) [1]: ~0.1 nM
- EC50 (read off the curve) [2]: ~0.1 nM
- EC50 (read off the curve) [3]: ~0.2 nM
- EC50 (read off the curve) [4]: ~0.2 nM
- EC50 (read off the curve) [5]: ~0.2 nM
- EC50 [6]: 0.245 nM

B2: QP256253 (humanized anti-SIRPα antibody, QP163164 humanized clone) (antibody, human IgG4, V domains shown)
VH: QVQLVQSGAEVKKPGASVKVSCKASGYTFTNYWINWVRQAPGQGLEWIAMIDPSDSETHYNQIFKDRATLTTDTSTSTAYMELRSLRSDDTAVYYCAMDYGSLYAMDYWGRGTLVTVSS
VL: DIVLTQSPDSLAVSLGERATINCRASKSVSSSGYNYIFWYQQKPGQPPKLLIYLASNLDSGVPDRFSGSGSGTDFTLTISSLQAEDVAVYYCQHSRELPTFGQGTKLEIK
- EC50 [6]: 0.204 nM

B3: QP256279 (affinity-matured humanized anti-SIRPα antibody) (antibody, IgG4, V domains shown)
VH: B2 VH
VL: B2 VL with K27Q, S30R, Y36W, L58R
notes: full-length IgG with hIgG4 constant region and kappa CL; also called CHO71 (QP256279 stably expressed in CHOS cells)
- EC50 (read off the curve) [2]: ~0.07 nM
- EC50 (read off the curve) [3]: ~0.08 nM
- EC50 (read off the curve) [7]: ~0.06 nM
- EC50 (read off the curve) [8]: ~0.07 nM
- EC50 (read off the curve) [9]: ~0.07 nM

B4: QP2561586 (affinity-matured humanized anti-SIRPα antibody) (antibody, IgG4, V domains shown)
VH: B2 VH
VL: B2 VL with H94E
notes: hIgG4 constant region, kappa CL
- EC50 [6]: 0.217 nM

B5: QP2561589 (affinity-matured humanized anti-SIRPα antibody) (antibody, IgG4, V domains shown)
VH: B2 VH
VL: B2 VL with H94E, R96W
notes: as for B4
- EC50 [6]: 0.188 nM
